Laboratory results from doi:10.1101/2025.11.17.688653.

Target: mouse PIEZO1-R2482H (mouse) (UniProt E2JF22)
Test: cryo-EM structure

A stoichiometry N of 3 was found for mouse PIEZO1-R2482H, E2JF22 1-2547 in this work.
